In patent publication US20120141464A1 (ZENYTH OPERATIONS, published 2012):
Positions count from the first letter of the chain named. One block for each binder: values may come before it.

Key:
human GM-CSFRα [1] = target: T1, human GM-CSFRα (human, UniProt P15509 23-400); assay: cell-based or functional assay
T1 sequence: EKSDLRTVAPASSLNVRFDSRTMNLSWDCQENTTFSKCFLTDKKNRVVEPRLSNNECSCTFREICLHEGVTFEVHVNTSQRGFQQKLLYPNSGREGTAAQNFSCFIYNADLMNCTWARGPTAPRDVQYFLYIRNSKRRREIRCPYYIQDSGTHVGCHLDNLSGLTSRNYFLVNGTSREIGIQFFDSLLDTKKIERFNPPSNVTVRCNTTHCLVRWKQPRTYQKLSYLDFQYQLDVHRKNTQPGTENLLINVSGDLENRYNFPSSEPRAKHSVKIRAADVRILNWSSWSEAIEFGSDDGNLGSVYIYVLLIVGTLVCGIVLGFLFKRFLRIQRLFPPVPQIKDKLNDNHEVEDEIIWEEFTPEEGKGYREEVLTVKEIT

cynomolgus GM-CSFRα = cynomolgus GM-CSFRα (cynomolgus); assay: cell-based or functional assay
[2] = target: T2, recombinant purification-tagged human GM-CSF receptor α extracellular domain (human, UniProt P15509 23-320); assay: SPR (BIAcore 2000); IgG4 captured on protein A, tagged receptor ECD as analyte; 1:1 Langmuir fit
T2 construct: Amino acids 1 to 298 of the mature receptor; also called purified GM-CSFRα extracellular domain; soluble extracellular domain of GM-CSFRα; not shown: N-terminal purification tag; Flag-tagged
T2 sequence: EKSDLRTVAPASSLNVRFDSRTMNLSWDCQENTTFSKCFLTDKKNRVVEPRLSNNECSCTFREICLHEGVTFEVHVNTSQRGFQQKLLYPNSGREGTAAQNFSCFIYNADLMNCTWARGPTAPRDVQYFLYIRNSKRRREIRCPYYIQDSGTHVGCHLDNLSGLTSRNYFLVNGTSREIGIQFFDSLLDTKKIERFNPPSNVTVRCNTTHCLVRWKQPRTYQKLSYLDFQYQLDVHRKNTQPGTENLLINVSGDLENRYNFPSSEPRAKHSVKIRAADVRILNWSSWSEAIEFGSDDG

human GM-CSFRα [3] = target: T1, human GM-CSFRα; assay: cell-based or functional assay; remark: listed apart in the source
human GM-CSFRα [4] = target: T1, human GM-CSFRα; assay: cell-based or functional assay; remark: listed apart in the source
human GM-CSFRα [5] = target: T1, human GM-CSFRα; assay: cell-based or functional assay; remark: listed apart in the source

- IC50, colony formation assay (10 ng/ml human GM-CSF) (human GM-CSFRα [1]): ~0.08 µg/mL
- IC50, cynomolgus granulocyte shape change assay (7 pM human GM-CSF) (cynomolgus GM-CSFRα): 1.73 pM
B1: Antibody 6 (as listed; germlining state in the experiment not stated) (antibody, V domains shown)
VH: QVQLVQSGAEVKKPGASVKVSCKVSGYTLTELSIHWVRQAPGKGLEWMGGFDPEENEIVYAQRFQGRVTMTEDTSTDTAYMELSSLRSEDTAVYYCAIVGSFSPLTLGLWGQGTMVTVSS
VL: QSVLTQPPSVSGAPGQRVTISCTGSGSNIGAPYDVSWYQQLPGTAPKLLIYHNNKRPSGVPDRFSGSKSGTSASLAITGLQAEDEADYYCATVEAGLSGSVFGGGTKLTVL

- IC50, cynomolgus granulocyte shape change assay (cynomolgus GM-CSFRα): ~5 nM
B2: Antibody 3 (28G5), parent antibody (antibody, V domains shown)
VH: QVQLVQSGAEVKKPGASVKVSCKISGHSLSELSIHWVRQTPTKGFEWMGGFDPEENEIVYAQRFQGRVTMTEDTSIDTAYLTLSSLRSDDTAVYYCSIVGSFSGWAFDYWGKGTMVTVSS
VL: QAVLTQPSSVSGAPGQRVTISCTGSGSNIGAPYDVSWYQQLPGTAPKLLIYHNNKRPSGVPDRFSASKSGTSASLAITGLQADDEADYYCQSYDSSLSGSVFGGGTKVTVL

- Kd [2]: 0.388 nM
- IC50, TF-1 proliferation assay (7 pM human GM-CSF) (human GM-CSFRα [3]): 23.8 pM
B3: Antibody 19 (antibody, V domains shown)
VH: B2 VH with S97A, F102V, G104R, W105I, A106T, F107Y, D108G, Y109F
VL: B2 VL with S96R, L97N, S98P, G99H, S100V, V101I, V108L
notes: also called Ab19

- Kd [2]: 0.139 nM
- IC50, human granulocyte shape change assay (7 pM human GM-CSF) (human GM-CSFRα [4]): 13.3 pM
- IC50, TF-1 proliferation assay (7 pM human GM-CSF) (human GM-CSFRα [3]): 0.97 pM
- IC50, monocyte TNFα release assay (1 nM human GM-CSF) (human GM-CSFRα [5]): 0.043 nM
B4: Antibody 6, non-germlined IgG4 (antibody, V domains shown)
VH: B2 VH with G104P, W105L, A106T, F107L, D108G, Y109L
VL: B1 VL with S2A, P8S, G66A, E83D

- Kd [2]: 4.07 nM
- IC50, TF-1 proliferation assay (7 pM human GM-CSF) (human GM-CSFRα [3]): 48 pM
B5: Antibody 4 (antibody, V domains shown)
VH: B2 VH with S97A, G104P, W105P, A106T, F107Y, D108G
VL: B2 VL
notes: also called Antibody 04; Ab4

- Kd [2]: 0.552 nM
- IC50, TF-1 proliferation assay (7 pM human GM-CSF) (human GM-CSFRα [3]): 34.5 pM
B6: Antibody 8 (antibody, V domains shown)
VH: B2 VH with S97A, G104P, W105P, F107Y, D108R, Y109P
VL: B2 VL
notes: also called Antibody 08; Ab8

- Kd [2]: 3.02 nM
- IC50, TF-1 proliferation assay (7 pM human GM-CSF) (human GM-CSFRα [3]): 246 pM
B7: Antibody 12 (antibody, V domains shown)
VH: B2 VH
VL: B2 VL with S96E, L97P, S98T, G99E, S100I, V101R, V108L
notes: also called Ab12

- IC50, human granulocyte shape change assay (7 pM human GM-CSF) (human GM-CSFRα [4]): 44 pM
- IC50, TF-1 proliferation assay (7 pM human GM-CSF) (human GM-CSFRα [3]): 40.8 pM
- IC50, monocyte TNFα release assay (1 nM human GM-CSF) (human GM-CSFRα [5]): 0.074 nM
B8: Antibody 9 (antibody, V domains shown)
VH: B2 VH with S97A, G104P, W105V, A106T, F107Y, D108G, Y109L, K112Q
VL: B2 VL

- Kd [2]: 1.14 nM
- IC50, human granulocyte shape change assay (7 pM human GM-CSF) (human GM-CSFRα [4]): 16 pM
- IC50, TF-1 proliferation assay (7 pM human GM-CSF) (human GM-CSFRα [3]): 12.8 pM
B9: Antibody 16 (antibody, V domains shown)
VH: B2 VH with G104P, W105L, A106T, F107M, D108G, Y109L
VL: B2 VL with D83E, Q91A, S92T, Y93S, S95E, S96I
notes: also called Ab16

- Kd [2]: 1.5 nM
- IC50, human granulocyte shape change assay (7 pM human GM-CSF) (human GM-CSFRα [4]): 62 pM
- IC50, TF-1 proliferation assay (7 pM human GM-CSF) (human GM-CSFRα [3]): 55.3 pM
- IC50, monocyte TNFα release assay (1 nM human GM-CSF) (human GM-CSFRα [5]): 0.139 nM
B10: Antibody 10 (antibody, V domains shown)
VH: B2 VH with S97A, W105L, F107Y, D108R, Y109P, V118I
VL: B2 VL
notes: also called Ab10

- Kd [2]: 0.376 nM
- IC50, human granulocyte shape change assay (7 pM human GM-CSF) (human GM-CSFRα [4]): 20.7 pM
- IC50, TF-1 proliferation assay (7 pM human GM-CSF) (human GM-CSFRα [3]): 15 pM
- IC50, cynomolgus granulocyte shape change assay (7 pM human GM-CSF) (cynomolgus GM-CSFRα): 3.2 pM
- IC50, monocyte TNFα release assay (1 nM human GM-CSF) (human GM-CSFRα [5]): 0.103 nM
B11: Antibody 2 (antibody, V domains shown)
VH: B2 VH with W105P, F107L, D108R, Y109P
VL: B2 VL
notes: also called Antibody 02; Ab2

- Kd [2]: 0.127 nM
- IC50, human granulocyte shape change assay (7 pM human GM-CSF) (human GM-CSFRα [4]): 7.8 pM
- IC50, TF-1 proliferation assay (7 pM human GM-CSF) (human GM-CSFRα [3]): 9.8 pM
B12: Antibody 20 (antibody, V domains shown)
VH: B2 VH with G104P, W105L, A106T, F107L, D108G, Y109L
VL: B2 VL with Q91A, S92T, Y93V, S95E, S96A
notes: also called Ab20

- Kd [2]: 1.03 nM
- IC50, TF-1 proliferation assay (7 pM human GM-CSF) (human GM-CSFRα [3]): 164 pM
B13: Antibody 15 (antibody, V domains shown)
VH: B2 VH with V99A, F102I, S103P
VL: B2 VL with S96Q, S98I, G99S, S100A, V101A
notes: also called Ab15

- Kd [2]: 0.847 nM
- IC50, human granulocyte shape change assay (7 pM human GM-CSF) (human GM-CSFRα [4]): 30 pM
- IC50, TF-1 proliferation assay (7 pM human GM-CSF) (human GM-CSFRα [3]): 9.3 pM
- IC50, monocyte TNFα release assay (1 nM human GM-CSF) (human GM-CSFRα [5]): 0.067 nM
B14: Antibody 5 (antibody, V domains shown)
VH: B2 VH with S97A, W105Y, A106P, F107Y, D108R, Y109P, K112Q
VL: B2 VL
notes: also called Antibody 05; Ab5

- Kd [2]: 3.93 nM
- IC50, TF-1 proliferation assay (7 pM human GM-CSF) (human GM-CSFRα [3]): 93.8 pM
B15: Antibody 7 (antibody, V domains shown)
VH: B2 VH with S97A, W105P, A106V, F107Y, D108G, Y109L
VL: B2 VL
notes: also called Antibody 07; Ab7

- IC50, human granulocyte shape change assay (7 pM human GM-CSF) (human GM-CSFRα [4]): 90 pM
- IC50, TF-1 proliferation assay (7 pM human GM-CSF) (human GM-CSFRα [3]): 9 pM
B16: Antibody 11 (antibody, V domains shown)
VH: B2 VH with G15E, S25P, S97A, G104P, W105I, A106T, F107Y, D108G, Y109L
VL: B2 VL with A13V

- Kd [2]: 0.502 nM
- IC50, TF-1 proliferation assay (7 pM human GM-CSF) (human GM-CSFRα [3]): 16.3 pM
B17: Antibody 14 (antibody, V domains shown)
VH: B2 VH with V99L, F102V, S103T, G104A
VL: B2 VL with S96E, L97D, S98R, G99M, S100T, V101E
notes: also called Ab14

- Kd [2]: 0.193 nM
- IC50, TF-1 proliferation assay (7 pM human GM-CSF) (human GM-CSFRα [3]): 14.3 pM
B18: Antibody 17 (antibody, V domains shown)
VH: B2 VH with G104P, W105L, A106T, F107M, D108G, Y109L
VL: B2 VL with Q91A, S92T, Y93V, D94E, S95D, S96G
notes: also called Ab17
